Fold increase in affinity over native LAIR1, other: % pulldown vs MGD21 (% of MGD21 LAIR1 pulldown) and Kd data for six molecules are collected here from publication PMC8270905, “Structural basis of LAIR1 targeting by polymorphic Plasmodium RIFINs” (Nature Communications, 2021).

Broadly, the Kd is the constant that tells how readily two partners part at equilibrium.

Test [1] deals with RIFIN (co-IP of the LAIR1 mutation series, Fig. 2c) (Plasmodium falciparum 3D7). As to the kind of experiment: co-IP; conditioned media incubated with protein A resin for one hour at room temperature; Fc-tagged RIFIN or LAIR1 pulled down, partner without Fc co-pulled down; SDS-PAGE, Coomassie blue, bands quantified with ImageJ.
In test [2] the target is RIFIN (co-IP of the LAIR1 mutation series, Fig. 2c). The experiment in a line: co-immunoprecipitation (Protein A Co-IP, SDS-PAGE band quantification). As to conditions: LAIR1 Fc tag; RIFIN-V2 MBP tag; n = 3 independent measurements; parent: est. 3.0; read off a plot.
Test [3] addresses T1, RIFIN (PF3D7_1040300) V2 domain, His-tagged (Plasmodium falciparum 3D7, UniProt Q8IJ06 184-328).
T1 construct: RIFIN PF3D7_1040300 (RIF1) of Plasmodium falciparum 3D7, variable domain 2 (V2); PDB 7JZI holds the V2 domain of this RIFIN; also called RIF1; source: Expi293F or Expi293 GnTI- cells, transfected
T1 sequence: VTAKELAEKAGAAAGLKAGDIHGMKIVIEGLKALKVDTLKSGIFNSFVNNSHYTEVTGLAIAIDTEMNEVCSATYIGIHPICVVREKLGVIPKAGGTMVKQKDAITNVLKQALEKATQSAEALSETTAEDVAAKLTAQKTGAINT
The experiment in a line: BLI; fortéBio Octet Red384; His-tagged RIFIN V2 domain immobilised on Ni-NTA biosensors, dipped into LAIR1 or MGD21 in a twofold concentration series; global fit, 1:1 Langmuir model. As to conditions: both partners purified. In general terms: BLI is a label-free optical method that tracks binding on a fibre tip over time.

For the molecule LAIR1 N153S (receptor), the fold increase in affinity over native LAIR1 in test [1] was 10 fold.

As for LAIR1 T151L (receptor), in test [1], the fold increase in affinity over native LAIR1 came out at 10 fold.

Consider “native human LAIR1 (from UniProt Q6GTX8) T151L; N153S”, for which, in test [2], the other: % pulldown vs MGD21 (% of MGD21 LAIR1 pulldown) was 66.

Regarding “native human LAIR1 (from UniProt Q6GTX8) T151L; N153S; A161T; P190S; P191R”, the other: % pulldown vs MGD21 (% of MGD21 LAIR1 pulldown) in test [2] turned out to be 58.

For the molecule “native human LAIR1 (from UniProt Q6GTX8) T151L; N153S; P190S; P191R”, the other: % pulldown vs MGD21 (% of MGD21 LAIR1 pulldown) in test [2] came to 62.

B1: native human LAIR1 (receptor)
chain: QEEDLPRPSISAEPGTVIPLGSHVTFVCRGPVGVQTFRLERDSRSTYNDTEDVSQASPSESEARFRIDSVREGNAGLYRCIYYKPPKWSEQSDYLELLVKE
modifications: N-linked glycosylation at N153 (MGD21 numbering)
notes: Leukocyte-associated immunoglobulin-like receptor 1 (LAIR1), human, unmutated; Probably the same limits as the MGD21 LAIR1 ectodomain; also called hLAIR1; unmutated (native) LAIR1; source: Expi293F or Expi293 GnTI- cells, transfected
Molecule B1 had a Kd in test [3] greater than 1000 nM.
